Biological target: T1, human thrombin (Homo sapiens, UniProt P00734)
T1 construct: biotin (chemical label)
Assay: mRNA display selection against thrombin, selected sequences ranked by next-generation-sequencing frequency
Format: binding
Settings: for percentage (%): share of recovered sequences; for counts: top binders ranked by frequency
Procedure: 1 ml of the fusions from the previous step were added to 50 ul of M270 SA beads blocked with TBSTE+2% BSA at room temperature, and were incubated at room temperature for 30 min, and the supernatant was removed for binding with biotinylated thrombin.
8) Pre-Selected Fusions were Bound to 3 ul Biotinylated Human Thrombin at 1 U/ul at 4° C. for 1 h with Rotation
25 ul of M270 SA bead suspension was washed and blocked with TBSTE+2% BSA. The beads were then collected, mixed with 1 ml of each fusion/target complex, and incubated at room temperature for 30 min. The mixture was washed 3× in TBSTE, transferred to a new tube, and the cDNA was eluted with 50 ul of 0.1 N NaOH at room temperature for 3 min. Then 2.5 ul 3M NaAc, pH5.5. BioRad spin column was added and the volume was adjusted to 147 ul with H2O.
The following rounds of selections (3-5) were carried out following the above procedure with increased stringency (e.g. lower amounts of fusion molecule input and increased number of washing steps). After each round of selection, similar PCR amplification was done to prepare the DNA library for the next round of selection.
In summary, for example, one round of mRNA display consisted of the following steps: in vitro transcription, DNase digestion, conjugation with the puromycin oligo linker, in vitro translation/fusion formation, FLAG fusion molecule purification, reverse transcription, pre-selection or functional selection, and regeneration of the selected sequences. Briefly, the cDNA library was in vitro transcribed using T7 RNA polymerase, the mRNA templates with puromycin at the 3′ ends were generated by crosslinking with an oligonucleotide containing a psoralen residue and a puromycin residue at its 5′ and 3′ ends, respectively, and in vitro translation was performed using an NEB Purexpress Δ123 kit. The desired mRNA-protein fusions were then isolated from the translation reaction mixture using anti-FLAG magnetic beads. The fusion molecules were then converted into DNA/RNA hybrids through reverse transcription. This step removed secondary mRNA structures that might interfere with the subsequent selection.
To analyze the results of the selection, the DNA libraries were amplified after each round of selection using specially-designed sequencing primers that harbor Illumina next-generation-sequencing adapters. The libraries were mixed, further purified and next generation sequencing was performed. Peptide sequences recovered after each round of selection were called out according to their unique sequencing barcode and further comparison and analysis was done. Next-generation-sequencing provided the advantages of high throughput and a more complete overview of the selected species.
When thrombin was used as a target, a total of three rounds of selections were carried out. The selection pressure was increased by increasing the washing stringency (from three times to five times then to ten times for selection round 1, 2 and 3). Table 1 illustrates the top binders (ranked according to their frequency) after each round of selection. After selection round 3, more than 30% of the selected peptides contained the conserved “RDPGR” (SEQ ID NO:331) motif. The most abundant peptide “RDPGRLIFQS” (SEQ ID NO:332) was chosen for further analysis.

[1] = Round 1 of selection, three washes
[2] = Round 3 of selection, ten washes
[3] = Round 2 of selection, five washes

HCDTLELRPA (MGCTSVHQETKKYQSHCDTLELRPASYTYNYEHVDVWGCGSADYKDDDDKKK)
percentage (%) [1]: 1.2E−03%
counts [1]: 40

QFHLEFAFTL (MGCTSVHQETKKYQSQFHLEFAFTLSYTYNYEHVDVWGCGSADYKDDDDKKK)
percentage (%) [2]: 0.020%
counts [2]: 164

RSHGQFSFTF (MGCTSVHQETKKYQSRSHGQFSFTFSYTYNYEHVDVWGCGSADYKDDDDKKK)
percentage (%) [2]: 0.031%
counts [2]: 258

RTKIK*NGL*
percentage (%) [3]: 0.0052%
counts [3]: 86

VVEFHFKWCI
percentage (%) [3]: 0.0046%
counts [3]: 75

LKQTDFRTPI (MGCTSVHQETKKYQSLKQTDFRTPISYTYNYEHVDVWGCGSADYKDDDDKKK)
percentage (%) [1]: 1.2E−03%
counts [1]: 39

VTSTYMFMYA
percentage (%) [3]: 0.0051%
counts [3]: 84
percentage (%) [2]: 0.021%
counts [2]: 175

SQSERATPRY (MGCTSVHQETKKYQSSQSERATPRYSYTYNYEHVDVWGCGSADYKDDDDKKK)
percentage (%) [1]: 1.5E−03%
counts [1]: 47

HRLQIATVYT (MGCTSVHQETKKYQSHRLQIATVYTSYTYNYEHVDVWGCGSADYKDDDDKKK)
percentage (%) [1]: 1.3E−03%
counts [1]: 42
percentage (%) [3]: 0.0109%
counts [3]: 179

PPVLPQLVLL (MGCTSVHQETKKYQSPPVLPQLVLLSYTYNYEHVDVWGCGSADYKDDDDKKK)
percentage (%) [1]: 1.4E−03%
counts [1]: 44

RDPYNVLISL (MGCTSVHQETKKYQSRDPYNVLISLSYTYNYEHVDVWGCGSADYKDDDDKKK)
percentage (%) [3]: 0.0170%
counts [3]: 278
percentage (%) [2]: 0.084%
counts [2]: 702

AAVRLNSSS*
percentage (%) [3]: 0.0046%
counts [3]: 75

KCCTSMVIQL (MGCTSVHQETKKYQSKCCTSMVIQLSYTYNYEHVDVWGCGSADYKDDDDKKK)
percentage (%) [1]: 1.2E−03%
counts [1]: 38

ETRIYIRFHT (MGCTSVHQETKKYQSETRIYIRFHTSYTYNYEHVDVWGCGSADYKDDDDKKK)
percentage (%) [3]: 0.0052%
counts [3]: 86

QMSFRFEVRV (MGCTSVHQETKKYQSQMSFRFEVRVSYTYNYEHVDVWGCGSADYKDDDDKKK)
percentage (%) [2]: 0.025%
counts [2]: 211

LQRAISSYSR (MGCTSVHQETKKYQSLQRAISSYSRSYTYNYEHVDVWGCGSADYKDDDDKKK)
percentage (%) [1]: 1.2E−03%
counts [1]: 38

RDPGRLIFQS (MGCTSVHQETKKYQSRDPGRLIFQSSYTYNYEHVDVWGCGSADYKDDDDKKK)
percentage (%) [3]: 0.1608%
counts [3]: 2642
percentage (%) [2]: 20.512%
counts [2]: 170914

RFHLFILGTS (MGCTSVHQETKKYQSRFHLFILGTSSYTYNYEHVDVWGCGSADYKDDDDKKK)
percentage (%) [1]: 1.4E−03%
counts [1]: 46

TQPKLTIEQR
percentage (%) [1]: 1.3E−03%
counts [1]: 42

SLFVEYRITY (MGCTSVHQETKKYQSSLFVEYRITYSYTYNYEHVDVWGCGSADYKDDDDKKK)
percentage (%) [2]: 0.027%
counts [2]: 224

RDPGRVIFEI (MGCTSVHQETKKYQSRDPGRVIFEISYTYNYEHVDVWGCGSADYKDDDDKKK)
percentage (%) [3]: 0.0993%
counts [3]: 1632
percentage (%) [2]: 10.038%
counts [2]: 83638

RDPGRIVFNN (MGCTSVHQETKKYQSRDPGRIVFNNSYTYNYEHVDVWGCGSADYKDDDDKKK)
percentage (%) [3]: 0.0475%
counts [3]: 781
percentage (%) [2]: 1.144%
counts [2]: 9534

SIEFGLTFSF (MGCTSVHQETKKYQSSIEFGLTFSFSYTYNYEHVDVWGCGSADYKDDDDKKK)
percentage (%) [2]: 0.023%
counts [2]: 195

PLIHPRRGYA (MGCTSVHQETKKYQSPLIHPRRGYASYTYNYEHVDVWGCGSADYKDDDDKKK)
percentage (%) [1]: 1.3E−03%
counts [1]: 43

— patent US20160312212A1, “COW ANTIBODY SCAFFOLD POLYPEPTIDE METHOD AND COMPOSITION” (Roche Sequencing Solutions, Inc., priority 2015, published 2016)
